Columns and labels:
[1] = target: T1, cynomolgus CD40 overexpressed on CHO-S cells (cynomolgus, UniProt G7PG38 21-278); assay: flow cytometry on CHO-S cells overexpressing cynomolgus CD40
T1 construct: whole, on cells; also called cynomolgus CD40 expressing CHO cells
Description: (§1) Specifically, by transfecting the pCHO1.0 vector (Invitrogen) with the human/cynomolgus CD40 cDNA cloned into the MCS and followed by applying pressure selection, CHO-S cells overexpressing human/cynomolgus CD40 were generated. The expanded CD40 overexpressing cells were adjusted to the appropriate cell density and plated on 96-well flow plate. After centrifugation, the cells were incubated with a gradient-diluted sample at 4° C. for 30 minutes. and the cells were then washed twice with PBS, and followed by incubation with a fluorescent secondary antibody diluted to the appropriate concentration, at 4° C. for 30 min. Following two washes with PBS, cells were resuspended in PBS and fluorescent signals were detection on the CytoFlex flow cytometer to calculate the corresponding MFI.

[2] = target: T2, human CD40 overexpressed on cells (human, UniProt P25942 21-277); assay: flow cytometry on CHO-S cells overexpressing human CD40
T2 construct: Cells transfected with human CD40 cDNA; also called CHO-huCD40 cells; CHO-S cells overexpressing human CD40
Description: as §1

[3] = target: T3, cynomolgus CD40-Fc protein (cynomolgus, UniProt G7PG38 21-193); assay: BLI (ForteBio), IgG on AHQ sensor, 100 nM CD40-Fc in solution, bivalent, 1:1 model
T3 construct: not shown: Fc part
Description: (§2) The antibody-loaded sensor was further incubated in a high concentration of irrelevant intact antibody solution for 10 minutes to saturate and block the Fc binding sites on the AHQ sensor. The blocked sensor was then incubated with 100 nM CD40-Fc antigen until a plateau was reached, and then the sensor was transferred to the analysis buffer for at least 2 minutes for dissociation rate measurement. Kinetic analysis was performed using a 1:1 binding model.

[4] = target: T4, human CD40-Fc protein (human, UniProt P25942 21-193); assay: as above
T4 construct: also called human CD40-Fc fusion protein; CD40-Fc antigen; not shown: Fc part
Description: as §2

[5] = target: T3, cynomolgus CD40-Fc protein; assay: BLI (ForteBio), CD40-Fc on AHQ sensor, 100 nM Fab in solution, monovalent, 1:1 model
Description: (§3) The antigen-loaded sensor was incubated with 100 nM Fab solution until a plateau was reached, and then the sensor was transferred to the analysis buffer for at least 2 minutes for dissociation rate measurement. Kinetic analysis was performed using a 1:1 binding model.

[6] = target: T4, human CD40-Fc protein; assay: as above
Description: as §3

T4 sequence (P25942 21-193 limits assumed): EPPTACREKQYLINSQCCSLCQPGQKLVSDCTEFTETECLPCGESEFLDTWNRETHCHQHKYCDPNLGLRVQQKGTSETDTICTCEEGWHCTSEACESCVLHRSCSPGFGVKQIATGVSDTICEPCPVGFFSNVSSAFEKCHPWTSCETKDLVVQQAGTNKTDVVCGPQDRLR
T2 sequence (P25942 21-277 limits assumed): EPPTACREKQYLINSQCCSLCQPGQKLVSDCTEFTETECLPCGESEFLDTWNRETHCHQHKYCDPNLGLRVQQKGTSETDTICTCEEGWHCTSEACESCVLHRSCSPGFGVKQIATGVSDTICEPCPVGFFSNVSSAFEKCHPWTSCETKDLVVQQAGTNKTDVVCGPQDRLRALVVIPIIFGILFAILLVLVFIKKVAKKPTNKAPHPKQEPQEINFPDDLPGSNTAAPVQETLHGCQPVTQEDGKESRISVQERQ

Binder	EC50 [1]	EC50 [2]	Kd [3]	Kd [4]	Kd [5]	Kd [6]
ADI-55168 (antibody, human IgG1, kappa, V domains shown) VH: EVQLVESGGGLVQPGRSLRLSCAASGFTFDTYAMHWVRQAPGKGLEWVSGISWSSGSIHYADSVKGRFTISRDNAKNSLYLQMNSLRAEDTAVYYCAKDPTATTGARGYFDLWGRGTLVTVSS VL: DIQMTQSPSSVSASVGDRVTITCEASQVISSWLAWYQQKPGKAPKLLIYAASYLQSGVPSRFSGSGSGTDFTLTISSLQPEDFATYYCQQHSSFPPTFGGGTKVEIKR	8.85 nM	4.73 nM	0.122 nM	0.111 nM		
ADI-55168 Fab (Fab, V domains shown) VH: EVQLVESGGGLVQPGRSLRLSCAASGFTFDTYAMHWVRQAPGKGLEWVSGISWSSGSIHYADSVKGRFTISRDNAKNSLYLQMNSLRAEDTAVYYCAKDPTATTGARGYFDLWGRGTLVTVSS VL: DIQMTQSPSSVSASVGDRVTITCEASQVISSWLAWYQQKPGKAPKLLIYAASYLQSGVPSRFSGSGSGTDFTLTISSLQPEDFATYYCQQHSSFPPTFGGGTKVEIK					0.586 nM	0.988 nM
ADI-55164 (antibody, human IgG1, kappa, V domains shown) VH: EVQLVESGGGLVQPGRSLRLSCAASGFTFDDYAMHWVRQAPGKGLEWVSGISWSSDSIHYADSVKGRFTISRDNAKNSLYLQMNSLRAEDTAVYYCAKDPTATTGARGYFDLWGRGTLVTVSS VL: DIQMTQSPSSVSASVGDRVTITCRASKVISSWLAWYQQKPGKAPKLLIYAASYLESGVPSRFSGSGSGTDFTLTISSLQPEDFATYYCQQHSSFPPTFGGGTKVEIKR	8.06 nM	5.47 nM	0.117 nM	0.1 nM		
ADI-55164 Fab (Fab, V domains shown, also called Fab fragment of ADI-55164) VH: EVQLVESGGGLVQPGRSLRLSCAASGFTFDDYAMHWVRQAPGKGLEWVSGISWSSDSIHYADSVKGRFTISRDNAKNSLYLQMNSLRAEDTAVYYCAKDPTATTGARGYFDLWGRGTLVTVSS VL: DIQMTQSPSSVSASVGDRVTITCRASKVISSWLAWYQQKPGKAPKLLIYAASYLESGVPSRFSGSGSGTDFTLTISSLQPEDFATYYCQQHSSFPPTFGGGTKVEIK					0.72 nM	0.663 nM
ADI-47720 Fab (Fab, V domains shown) VH: EVQLVESGGGLVQPGRSLRLSCAASGFTFDDYAMHWVRQAPGKGLEWVSGISWSSGSIGYADSVKGRFTISRDNAKNSLYLQMNSLRAEDTAVYYCAKDPTATTGARGYFDLWGRGTLVTVSS VL: DIQMTQSPSSVSASVGDRVTITCRASQGISSWLAWYQQKPGKAPKLLIYAASSLQSGVPSRFSGSGSGTDFTLTISSLQPEDFATYYCQQRASFPPTFGGGTKVEIK					263 nM	152 nM
ADI-55136 Fab (Fab, V domains shown) VH: QVQLVESGGGVVQPGRSLRLSCAASGFTFSSYGMHWVRQAPGKGLEWVAVISYHASSKYYADSVKGRFTISRDNSKNTLYLQMNSLRAEDTAVYYCARDTSRGHDIWGQGTMVTVSS VL: EIVLTQSPGTLSLSPGERATLSCRASQSVSSSYLAWYQQKPGQAPRLLIYGASSRATGIPDRFSGSGSGTDFTLTISRLEPEDFAVYYCQQYADYPPFTFGGGTKVEIK					78.1 nM	
ADI-55144-2 (antibody, human IgG1, kappa, V domains shown) VH: QVQLVESGGGVVQPGRSLRLSCAASGFTFEKYGMHWVRQAPGKGLEWVAVISYEGTKKYYAESVKGRFTISRDNSKNTLYLQMNSLRAEDTAVYYCARDTSRGHDIWGQGTMVTVSS VL: EIVLTQSPGTLSLSPGERATLSCRASQSVSYSYLAWYQQKPGQAPRLLIYGASSLATGIPDRFSGSGSGTDFTLTISRLEPEDFAVYYCQQYSDYPPFTFGGGTKVEIKR	15 nM	11.5 nM				
ADI-55140 (antibody, human IgG1, kappa, V domains shown) VH: QVQLVESGGGVVQPGRSLRLSCAASGFTFEKYGMHWVRQAPGKGLEWVAVIHYEGSIKYYADSVKGRFTISRDNSKNTLYLQMNSLRAEDTAVYYCARDTSRGHDIWGQGTMVTVSS VL: EIVLTQSPGTLSLSPGERATLSCRASQSVSYDYLAWYQQKPGQAPRLLIYGASTRANGIPDRFSGSGSGTDFTLTISRLEPEDFAVYYCGEYADYPPFTFGGGTKVEIKR	8.53 nM	6.3 nM	0.23 nM	0.168 nM		
ADI-55145 Fab (Fab, V domains shown) VH: QVQLVESGGGVVQPGRSLRLSCAASGFTFEKYGMHWVRQAPGKGLEWVAVISYEGTSKYYADSVKGRFTISRDNSKNTLYLQMNSLRAEDTAVYYCARDTSRGHDIWGQGTMVTVSS VL: EIVLTQSPGTLSLSPGERATLSCQASQSVSYNYLAWYQQKPGQAPRLLIYGASSRNNGIPDRFSGSGSGTDFTLTISRLEPEDFAVYYCQQYSDYPPFTFGGGTKVEIK					5.72 nM	5.88 nM
ADI-55144 (antibody, human IgG1, kappa, V domains shown) VH: QVQLVESGGGVVQPGRSLRLSCAASGFTFEKYGMHWVRQAPGKGLEWVAVISYEGTKKYYADSVKGRFTISRDNSKNTLYLQMNSLRAEDTAVYYCARDTSRGHDIWGQGTMVTVSS VL: EIVLTQSPGTLSLSPGERATLSCRASQSVSYSYLAWYQQKPGQAPRLLIYGASSLATGIPDRFSGSGSGTDFTLTISRLEPEDFAVYYCQQYSDYPPFTFGGGTKVEIKR			0.19 nM	0.11 nM		
ADI-55144 Fab (Fab, V domains shown) VH: QVQLVESGGGVVQPGRSLRLSCAASGFTFEKYGMHWVRQAPGKGLEWVAVISYEGTKKYYADSVKGRFTISRDNSKNTLYLQMNSLRAEDTAVYYCARDTSRGHDIWGQGTMVTVSS VL: EIVLTQSPGTLSLSPGERATLSCRASQSVSYSYLAWYQQKPGQAPRLLIYGASSLATGIPDRFSGSGSGTDFTLTISRLEPEDFAVYYCQQYSDYPPFTFGGGTKVEIK					2.21 nM	2.08 nM
ADI-55136 (antibody, human IgG1, kappa, V domains shown) VH: QVQLVESGGGVVQPGRSLRLSCAASGFTFSSYGMHWVRQAPGKGLEWVAVISYHASSKYYADSVKGRFTISRDNSKNTLYLQMNSLRAEDTAVYYCARDTSRGHDIWGQGTMVTVSS VL: EIVLTQSPGTLSLSPGERATLSCRASQSVSSSYLAWYQQKPGQAPRLLIYGASSRATGIPDRFSGSGSGTDFTLTISRLEPEDFAVYYCQQYADYPPFTFGGGTKVEIKR	4.83 nM		0.383 nM			
ADI-55147 Fab (Fab, V domains shown, also called Fab fragment of ADI-55147) VH: QVQLVESGGGVVQPGRSLRLSCAASGFTFGSYGMHWVRQAPGKGLEWVAVISYEGVKKYYADSVKGRFTISRDNSKNTLYLQMNSLRAEDTAVYYCARDTSRGHDIWGQGTMVTVSS VL: EIVLTQSPGTLSLSPGERATLSCRASQSVSYDYLAWYQQKPGQAPRLLIYGASARANGIPDRFSGSGSGTDFTLTISRLEPEDFAVYYCQQYADYPPFTFGGGTKVEIK					8.87 nM	8.67 nM
ADI-55142 Fab (Fab, V domains shown) VH: QVQLVESGGGVVQPGRSLRLSCAASGFTFEKYGMHWVRQAPGKGLEWVAVISYEGEKKYYADSVKGRFTISRDNSKNTLYLQMNSLRAEDTAVYYCARDTSRGHDIWGQGTMVTVSS VL: EIVLTQSPGTLSLSPGERATLSCRASQSVSYSYLAWYQQKPGQAPRLLIYGASSRANGIPDRFSGSGSGTDFTLTISRLEPEDFAVYYCSDYADYPPFTFGGGTKVEIK					2.81 nM	2.74 nM
ADI-55140 Fab (Fab, V domains shown) VH: QVQLVESGGGVVQPGRSLRLSCAASGFTFEKYGMHWVRQAPGKGLEWVAVIHYEGSIKYYADSVKGRFTISRDNSKNTLYLQMNSLRAEDTAVYYCARDTSRGHDIWGQGTMVTVSS VL: EIVLTQSPGTLSLSPGERATLSCRASQSVSYDYLAWYQQKPGQAPRLLIYGASTRANGIPDRFSGSGSGTDFTLTISRLEPEDFAVYYCGEYADYPPFTFGGGTKVEIK					5.42 nM	5.77 nM
ADI-47741 (antibody, human IgG1, kappa, V domains shown) VH: QVQLQESGPGLVKPSETLSLTCTVSGGSISSYYWSWIRQPPGKGLEWIGSIYYSGSTNYNPSLKSRVTISVDTSKNQFSLKLSSVTAADTAVYYCARDANYYKWHPYWGQGTLVTVSS VL: EIVLTQSPGTLSLSPGERATLSCRASQSVSSDYLAWYQQKPGQAPRLLIYGASSRATGIPDRFSGSGSGTDFTLTISRLEPEDFAVYYCQQVLSYPPTFGGGTKVEIKR	17.9 nM		0.559 nM			
ADI-47741 Fab (Fab, V domains shown) VH: QVQLQESGPGLVKPSETLSLTCTVSGGSISSYYWSWIRQPPGKGLEWIGSIYYSGSTNYNPSLKSRVTISVDTSKNQFSLKLSSVTAADTAVYYCARDANYYKWHPYWGQGTLVTVSS VL: EIVLTQSPGTLSLSPGERATLSCRASQSVSSDYLAWYQQKPGQAPRLLIYGASSRATGIPDRFSGSGSGTDFTLTISRLEPEDFAVYYCQQVLSYPPTFGGGTKVEIK					71 nM	
